Results on two molecules are retold here after paper PMC6920769, “Knockout of Arabidopsis Serotonin N-Acetyltransferase-2 Reduces Melatonin Levels and Delays Flowering” (Biomolecules, 2019).

One series addresses T1, AtSNAT1 (Arabidopsis thaliana, UniProt Q7X9V3).
T1 construct: gene NSI
Description: HPLC of N-acetylserotonin formed. The format is biochemical. To be noted: serotonin 0.5 mM.

Substrate in series [1]: NCCc1c[nH]c2ccc(O)cc12
Description: HPLC of N-acetylserotonin formed, Lineweaver-Burk. The format is biochemical, Arabidopsis thaliana. The note with it: acetyl-CoA 0.5 mM, 100 mM potassium phosphate pH 7.8, 45 °C, printed as Km for NAS (synthesis).

Substrate in series [2]: COc1ccc2[nH]cc(CCN)c2c1
Description: HPLC of melatonin formed, Lineweaver-Burk. The format is biochemical, Arabidopsis thaliana. The note with it: acetyl-CoA 0.5 mM, 100 mM potassium phosphate pH 7.8, 45 °C.

T1 sequence (Q7X9V3 59-258): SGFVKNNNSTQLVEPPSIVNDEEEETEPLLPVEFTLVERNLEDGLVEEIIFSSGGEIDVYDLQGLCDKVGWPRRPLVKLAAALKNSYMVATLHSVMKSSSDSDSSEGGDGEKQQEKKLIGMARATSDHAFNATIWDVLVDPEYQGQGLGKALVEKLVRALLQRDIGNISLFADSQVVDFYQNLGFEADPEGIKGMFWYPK

On to `NCCc1c[nH]c2ccc(O)cc12` [serotonin], for which, on AtSNAT1, the “HPLC of N-acetylserotonin formed” value is recorded as “Melatonin-mediated inhibition of NAS synthesis by recombinant AtSNAT1”.

B1: AtSNAT2 (Arabidopsis thaliana) (protein)
chain: MFLGGTISTPPASLRLRSTLNPQNAVTQSSSQATFPAAMQRKPPSYSISDEDLESRGFLLRRTTEGLNLDQLNSVFAAVGFPRRDTAKIEVALQHTDALLWVEYEKTRRPVAFARATGDGVFNAIIWDVVVDPSFQSCGLGKAVMERLIEDLQVKGICNIALYSEPRVLGFYRPLGFVSDPDGIKGMVFIRKQRNKK
notes: kinetics text says recombinant AtSNAT2 (not the truncated form)
Consider B1, for which the Michaelis constant (Km) turned out to be 232 µM in series [1] and 630 µM in series [2].
